Data as given in patent US20170305985A1 (Stanford University, published 2017).

Target: Met receptor on Madine-Darby canine kidney (MDCK) cells (canine (MDCK cells), UniProt Q75ZY9 25-1382)
Experiment: cell-based or functional assay

inhibition of HGF-induced activation of Met, MDCK cells: ~5 fold lower concentration
B1: recombinant soluble Aras-4 (ligand)
chain: YAEGQGKRRNTIHEFKKSAKTTLIKIDPALRIKTEKANTADQCANRCTRSKGLPFTCKAFVFDKARKRCLWFPFNSMSSGVKKEFGHEFDLYENKAYIRDCIIGRGRNYRGTVSITKSGIKCQPWSAMIPHEHSFLPSSYRGEDLRENYCRNPRGEEGGPWCYTSDPEVRYEVCDIPQCSEVE
